Laboratory results published in the nanobody polyreactivity screen of Harvey et al. (2022).

Experiment: yeast display, Sf9 membrane polyspecificity reagent, FACS + sequencing; frameworks hold sequencing errors
Summary of the method: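 Nanobodies came from a synthetic yeast display library in Saccharomyces cerevisiae BJ5465, induced with galactose for 36–48 hours and stained for 1 hour at 4 °C with 10% biotinylated, detergent-solubilized Sf9 membrane reagent. Cells were enriched on streptavidin microbeads and then FACS-sorted, with low and high (top ~1%) gates set on anti-HA fluorescence for expression and streptavidin fluorescence for reagent binding. Each polyreactivity label reflects the gate a clone came from. Genes were amplified by colony PCR, sequenced by MiSeq 2 × 250 and filtered by CDR length.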

Row | Sequence | polyreactivity (PSR sort gate)
1 | QVQLVESGGGLVQAGGSLRLSCAASGRIFSNNAMGWYRQAPGNERELVAAISSSGGSTYYADSVKGRFTISRDNAKNTVYLQMNSLKPEDTAVSYCNVGRRKIDDYWGQGTQVTVSS | high polyreactivity
2 | QVQLVESGGGLVQAGGSLRLSCAASGRIFSNYAMGWYRQAPGKERELVAAISRGGGRTFYADSVKGRFTISRDNAKNTVYLQMNSLKPEDTAVYYCATRSYYVKGDYWGQGTQVTVSS | high polyreactivity
3 | QVQLVESGGGLVQAGGSLRLSCAASGRIFSNYAMGWYRQAPGKERELVAAISSSGGRTYYADSVKGRFTISRDNAKNTVYLQMNSLKPEDTAVYYCARRHTGTKFAFYYWGQGTQVTVSS | high polyreactivity
4 | QVQLVESGGGLVQAGGSLRLSCAASGRIFSPNAMGWYRQAHVKERELVADITFGDGSTYYADSVKGRFTISRDNAKNTVYLQMNSLIPEDTAVYYCAAELYYLYALYIYYPFYYWGQGTQVTVSS | high polyreactivity
5 | QVQLVESGGGLVQAGGSLRLSCAASGRIFSQNAMGWYRQAPGKERELVAAISGGSTNYADSVKGRFTISRDNAKNTVFLQMNSLKPEDTAVYYCAADAPFKMDYWGQGTQVTVSS | low polyreactivity
6 | QVQLVESGGGLVQAGGSLRLSCAASGRIFSQNAMGWYRQAPGKEREVVAVISRGGSTNYADSVKGRFTISRDNAKNTVYLQMNSLKPEDTAVYYCAADYAYIRSVWKWFIGDYWGQGTQVTVSS | low polyreactivity
7 | QVQLVESGGGLVQAGGSLRLSCAASGRIFSQYAMGWNRQAPGKERELVAAITWRGASTYYADSVKGRFTISRDNAKNTVYLQMNSLKPEDTAVYYCAAGYPQGRYYRVRWVGYWGQGTQVTVSS | high polyreactivity
8 | QVQLVESGGGLVQAGGSLRLSCAASGRIFSQYAMGWYRQAPGKERELVAAISRRTGSTYYADSVKGRFTISRDNAKNTVYLQMNSLKPEDTAVYYCNKARLGWSYRQDDYWGQGTQVTVSS | high polyreactivity
9 | QVQLVESGGGLVQAGGSLRLSCAASGRIFSRNAMGWYRQAPGKERELVAAISSSAGSTYYADSVKGRFTISRDNAKHTVYLQMNSLKPEDTAVYYCGAESVGDMDYWGQGTQVSVSS | low polyreactivity
10 | QVQLVESGGGLVQAGGSLRLSCAASGRIFSRNAMGWYRQAPGKERELVAAITRRGGSTYYADSVKGRFTISRDNAKNTVYLQMNSLKPEDTAVYYCATVTYSGSVDYDYWGQGTQVTVSS | high polyreactivity
11 | QVQLVESGGGLVQAGGSLRLSCAASGRIFSRNDMGWYRQSPGKERELVAAITRIGGSTYYADSVKGRITISRDNAKNTVYLQMNSLKPEDNAVYYCAARGSGKYGWGQGSQVTVSS | high polyreactivity
12 | QVQLVESGGGLVQAGGSLRLSCAASGRIFSRNTMGWYRQAPGKERELVATITSAGSTTYADSVKGRFTISRDNAKNTVYLQMNRLKPEDTAVYYCAARSWKRRVGRDYWGQGTQVTVSS | high polyreactivity
13 | QVQLVESGGGLVQAGGSLRLSCAASGRIFSRYAMGWYRKAPGKERELVAAITQSGTSTYYADSVKGRFTFSRDNAKNTVYLQMNCLKPEDTAVYYCNAYRQYRYDYWGQGTQVTVSS | low polyreactivity
14 | QVQLVESGGGLVQAGGSLRLSCAASGRIFSRYAMGWYRQAPGKERELDAAINKSGGSTYYADSVKGRFTISRDNAKHTVYLQMNSLKPEDTAVYYCAADGRLRGYGYWGQGTQVTVSS | high polyreactivity
15 | QVQLVESGGGLVQAGGSLRLSCAASGRIFSRYAMGWYRQAPGKERELVAAINKSGGSTYYADSVKGRFTISRDNAKNTVYLQMNSLKPEDTAVYYCNAVYYYGRRRYGYWGQGTQVTVSS | high polyreactivity
16 | QVQLVESGGGLVQAGGSLRLSCAASGRIFSRYAMGWYRQAPGKERELVAAINKSGGSTYYADSVKGRFTISRDNEKYTVYLQMNSLKPEDTAVDYCNAVYYWYKGDYWGQGTQVTVSS | high polyreactivity
17 | QVQLVESGGGLVQAGGSLRLSCAASGRIFSRYAMGWYRQAPGKERELVAAISWSGGSTYYADSVKGRFTISRDNAKNNVYLQMNSLKPEDTAVYYCAARRSYSYGSWGQGTQVTVSS | high polyreactivity
18 | QVQLVESGGGLVQAGGSLRLSCAASGRIFSRYAMGWYRQAPGKERELVAVISRSGADTYYADSVKGRFTISRDNAKNTVYLQMNSLKPEDTAVFYCNAYSARRPHPMCYDSWGQGTQVTVSS | high polyreactivity
19 | QVQLVESGGGLVQAGGSLRLSCAASGRIFSRYTMGWYRQAPGKERELVAAISRRGGSTNYADSVKGRFTISRDNAKNTVYLQMNSLKPEDTAVYYCAAHGPFVRSQSLRSGRFDYWGQGTQVTVSS | high polyreactivity
20 | QVQLVESGGGLVQAGGSLRLSCAASGRIFSRYTMGWYRQAPGKERELVAAISYRGGSTYYADSVKGRFTISRDNAKNTVYLQMNSLKPEDTAVYYCAARVQAIYRYDYWGQGTQVTVSS | high polyreactivity
21 | QVQLVESGGGLVQAGGSLRLSCAASGRIFSRYVMGWYRQAPGKERELVAAITRNGGNTYYADSVTGRFTISRDNAKNTVYLQMNSLKPEDTAVYYCAGRAVLKSWAYYYWGQGTQVTVSS | high polyreactivity
22 | QVQLVESGGGLVQAGGSLRLSCAASGRIFSSKAMGWYRQAPGKERELVAAISWIVGRTYYADSVKGRFTISRDNAKNTVYLQMNSLIPEATAVYYCAKGSYYVRNRGWGYDYWGQGTQVTVSS | high polyreactivity

Row | Sequence | polyreactivity (PSR sort gate)
23 | QVQLVESGGGLVQAGGSLRLSCAASGRIFSSNAMGWYRQAPGKERELVASINRGDRTYYADSVKGRFTISRDNAKNTVYLQMNSLKPEDTAVYYCAAARTYGKKYGYWGQGTQVTVSS | high polyreactivity
24 | QVQLVESGGGLVQAGGSLRLSCAASGRIFSSYAMGWYRQAPGKERELVAAIRYDAGSTYYADSVKGRFTISRDHAKNTVYLQMNSLKPEDTAVYYCAARIYFEQWSWYGYWGQGTQVTVSS | high polyreactivity
25 | QVQLVESGGGLVQAGGSLRLSCAASGRIFSSYTMGWYRQAPGKERELVATITLRGGRTYYADSVKGRFTISRDNAKNTVYLQMNSLKPEDTAVYYCAATYLTYYHRFNYWGQGTQVTVSS | high polyreactivity
26 | QVQLVESGGGLVQAGGSLRLSCAASGRIFSTNAMGWYRQAPAKERELVAAITRGVSTKYADSVKRRFTISRDNAKNTVYLQMNSLKPEDTAVYYCAASVVWGPESDYWGQGTQVTVSS | low polyreactivity
27 | QVQLVESGGGLVQAGGSLRLSCAASGRIFSTYTMGWYRQAPGKERELVAAIRANGGSTYYADSVKGRFTISRDNAKNTVYLQMNSLKPEVTAVYYCNARRPIGTGYYWGQGTQVTVSS | high polyreactivity
28 | QVQLVESGGGLVQAGGSLRLSCAASGRIFSTYVMGCYRQAPGKERELVAAITRGGSTNYADSVKGRFTISRDNAKNTVYLQMNSLKPEDTAVYYCNAQRRGTYYLGQGTQVTVSS | high polyreactivity
29 | QVQLVESGGGLVQAGGSLRLSCAASGRIFSTYVMGWYRQAPGKERELVAAIRNRGGSTYYADSVKGRFTISRDNAKNTVYLQMNSLKPEDTAVFYCAAEYSYRYRVSMDYWGQGTQVTVSS | high polyreactivity
30 | QVQLVESGGGLVQAGGSLRLSCAASGRIFSTYVMGWYRQAPGKERELVAAITWSGGSTYYADSVKGRFTISRDTAQNTVYLQMNTLKPEDTAVYYCAADEIYGYDYWGQGTQVTVSS | high polyreactivity
31 | QVQLVESGGGLVQAGGSLRLSCAASGRIFSVNAMGWYRQAPGKERELVAAITPGASTNYADSVKGRFTISRDNAKNTVYLQMNSLKPEDTAVYYCAAGWVSFEDWVLGSYYEYDYWGQGTQVTVSS | low polyreactivity
32 | QVQLVESGGGLVQAGGSLRLSCAASGRIFSVNAMGWYRQAPGKERELVAAITSGGRTNYADSVKGRFTISRDNAKNTFYLQMNSLKPEDTAVYYCAAPYLKGGEDDYWGQGTQVTVSS | high polyreactivity
33 | QVQLVESGGGLVQAGGSLRLSCAASGRIFSVYAMGWYRQAPGKEREFVASISWRGGRTYYADSVKGRFTISRDNAKNTVYLQMNSLKPEDTAVYYCAAVSYPAVYGFDYWGQGTQVTVSS | high polyreactivity
34 | QVQLVESGGGLVQAGGSLRLSCAASGRIFSVYAMGWYRQAPGKERELVAAITNGGRTNYADSVKGRFTISRDNAKNTVYLQMNSLKPEDTAVYYCATDPVKSGYQRYYYWGQGTQVTVSS | low polyreactivity
35 | QVQLVESGGGLVQAGGSLRLSCAASGRIFSVYDMGWYRQAPGKERELVAAIDTSDGSTNYADSVTGRFTISRDNAKNTVYLQMNSLKPEDTAVYYCNATDSYVPFDYWGQGTQVTVSS | low polyreactivity
36 | QVQLVESGGGLVQAGGSLRLSCAASGRIFSVYDMGWYRQAPGKERELVAAISWSGGTTYYADSVKGRFTISRDNAKNTVYLQMNSLKPEDTAVYYCAARSRSRYDYWGQGTQVTVSS | high polyreactivity
37 | QVQLVESGGGLVQAGGSLRLSCAASGRIFSVYTMGWYRKAPGKERELVATISSGGRTNYADSVKGRFTISRDNAKNTVYLQMNSLKPEDTAVYYCAAVPYGFVGYDDYWGQGTQVTVSS | low polyreactivity
38 | QVQLVESGGGLVQAGGSLRLSCAASGRIFSVYTMGWYRQAPGKERELVAAISSGASTNYADSVKGRFTISRDNAKNTVYLQMNSLKPEDTAVYYCAKVLTNFNLYYYWGQGTQVTVSS | low polyreactivity
39 | QVQLVESGGGLVQAGGSLRLSCAASGRIFSVYTMGWYRQAPGKERELVATISSGGRTNYADSVKGRFTISRDNAKNTVYLQLNSLKPEDTAVYYCNADYFGQESWWMDYWGQGTQVTVSS | low polyreactivity
40 | QVQLVESGGGLVQAGGSLRLSCAASGRIFSYNAMGWYRPAPGKEREIVAGITKSGDDTFYADSVKGRFTISRDNAKNTVYLQMNSLKPQDTAVYYCAAASNPRYYTNRMVYWGQGTQVTVSS | low polyreactivity
41 | QVQLVESGGGLVQAGGSLRLSCAASGRIFSYNTVMGWYRQAPGKERELVAAITYSSASTYYADSVKGRFTISRDNAKNTVYLQMNSLKPEDTAVYYCAADAYTPGYRGDYWGQGTQVTVSS | low polyreactivity
42 | QVQLVESGGGLVQAGGSLRLSCAASGRIFSYYAMGWYRQAPGKERELVAAISRTGGRTYYADSVKGRFTISRDNAKNTVYLQMNSLKPEDTAVYYCNVVGRRYWHWDQALDYWGQGTQVTVSS | high polyreactivity
43 | QVQLVESGGGLVQAGGSLRLSCAASGRIFSYYAMGWYRQAPGKERELVAAITKSGGSTFYADSVKGRFTISRDNAKNTVYLQMNSLKPEDTAVYYCAAEVTLEDWGYSWKYDYLGQGTQVTVSS | high polyreactivity
